B1: F-15-C; numbered along this chain (parent)
chain: EASNCFAIRHFENKFAVETLICFNLFLNSQEKHY

Variants of: B1
Assay: amyloid nucleation score relative to WT ADan (yeast Sup35 reporter selection) (log enrichment difference); higher = more amyloid nucleation
Experimental: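 Deep mutational scan of the ADan peptide fused to the Sup35 nucleation domain (SupN) in S. cerevisiae [psi-pin-], covering all single amino-acid substitutions and stop truncations (truncations = sequence up to the stop). After 24 h Cu2+ induction, cells were selected on -ADE-URA plates for 7 d at 30 °C. The nucleation score is log enrichment (output/input, deep sequencing) minus that of WT ADan, as the error-weighted mean of 3 biological replicates (DiMSum).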

Amyloid nucleation score: each site, then its substitutions
F15: C -0.147; A 0.534; D -2.5; K -1.37; R -2.18; H -2.51; L -0.25; N -0.337; S -0.453; T -0.00209; Q -0.502
E31: Q -0.871; D -0.000529; H -1.64; Y -2.5; L -3.31; R -2.51; N -0.844; F -5.7; W -6.44; C -2.07; T -1.22
R9: H -0.0444; C 0.0357; W -0.819; L -0.614; F -0.221; V -0.535; G 0.614; Y 0.0138; M 0.735; S 0.143; I -0.484
N4: R -0.0776; T -2.19; E 0.296; V -4.24; F -4.13; W -3.34; M -4.92; K 0.0897
F23: G 0.469; R 0.617; A 0.41; E 0.416; K 0.342; I -0.248; Y 0.115; C 0.666; D 0.717; N -0.504; L 0.404; W -0.121
A16: I -0.647; M -0.212; F 0.651; Y 0.572; N 0.755; P -1.2; T 0.448; V -0.233; C 0.159
N24: I -3.74; F -3.3; H -3.55; P -0.19; V -2.78
K14: W 0.0928; F 0.137; E 0.00624; L 0.488; S 0.341; A 0.253; V 0.207; I 0.391; P 0.000567; M 0.629
E1: V 0.419; G 0.0173; A 0.401; I -1.07; N 0.0879; Y 0.135; P 0.117; D -0.0528; M -0.555; F -1.27; L -1.03; R -1.76; C 0.179; W 0.00448
F11: N -0.169; E 0.0736; W -0.14; G 0.144; A 0.14; I 0.216; C 0.247
A7: Y 0.529; G 0.45; L -1.17; T -0.0425; F 0.173; E 0.0742; D -0.2; I -0.415; V 0.125; K 0.0182
K32: Y -0.0344; L -0.598; M -0.157; C -0.144; E 0.78; Q 0.041; I -1.31; V -0.601; R -0.086; G 0.113; A 0.179; H 0.279; P 0.00117
I21: W 0.109; H 0.679; N 0.877; Q 0.332; E -0.48; G -0.00868; S 0.32; A -0.465; Y 0.68
T19: L -4.84; Q 0.45; I -3.44; G 0.166; E -0.714; M -1.99; R 0.563; P 0.859; S 0.268; F -3.39; D -0.804; Y -0.511
Y34: H 0.0246; S 0.193; W -0.636; E 0.297; F -0.228; R 0.398; I -0.222; N -0.386
L27: D 0.457; M 0.15; S 0.669; E 0.567; F -0.518; C 0.66; A -0.084
C5: Q 0.396; Y -0.00901; G 0.214; D 0.699; R 0.0293; A 0.274; L -0.0462; H 0.0549; P 0.685; W -1.36; F 0.0304; K -0.223; V -0.199
L25: R -3.04; H -2.4; D -1.12; C 0.731; N 0.307; S -2.33; M 0.178; P -1.7; I -0.254
E18: P 0.645; M -3.07; Y -5.47; R -0.108; T -1.61; H -0.855; S -0.355; F -2.56; D 0.406
E12: D 0.334; G -0.627; Y -0.651; W -2.66; M -1.67; S -0.259; L -2.5; C -0.751; F -2.21
S29: P -0.168; Y -1.65; W -1.86; A -0.27; N 0.0767; D 0.326; I -1.29; Q 0.312; F -1.68; T 0.043; V -0.294
H33: F -0.205; G -0.479; I -1.01; V -0.668; W -0.788; C -1.33; Q -0.171; T -0.406
S3: F -0.00261; I -1.1; R -0.46; L -0.738; A 0.258; P 0.338; W -0.398; E 0.224; H -0.359; N 0.0448
F6: I -0.609; K 0.8; Y 0.351; H 0.563; V -0.127; N 0.646; Q 0.362
A2: L -1.51; G 0.0812; E 0.464; D 0.518; F -1.28; C 0.581; T -0.12; S 0.208; Y -0.52; N 0.137; W -0.655; R -0.078
N28: G 0.0833; P 0.0596; Y -1.12; F -0.101; E -0.442; T -0.313; L -0.936
H10: E 0.551; P 0.798; G 0.122; N -0.16; Q 0.00592; R 0.227; F -0.478; V 0.0906; W -0.926; D 0.76; T 0.0221; A 0.402; M -0.511
L20: I -0.22; S -3.53; M 1.01; A -1.66; F -0.103; C -0.49; D -2.35; K -4.53; Q -1.95
C22: A 0.347; N 0.532; G -1.17; H -1.92; L -0.346; T -0.69; Q 0.969; F -0.753; R -3.03
I8: M 0.354; F 0.15; V 0.0841; K 0.701; L 0.288; R 0.781; E 0.604; G 0.834; C 0.524
N13: P -0.534; G 1.19; V 0.195; A -0.453; R -1.97; D 0.0178; W -0.378; M -0.696; E -0.506; S -0.991; K -0.309
Q30: W -0.8; S -0.0951; D 0.207; T -0.212; C -0.317; V -0.127; Y -0.751; P -0.153
V17: A 0.689; C 0.711; K 0.416; G 0.953; R 0.126; P 0.114; T -0.513; N -0.235; W -0.301; I 0.523; D -0.492
F26: L -0.42; Q -0.394; A -0.314; G 0.778; D -0.707; S -0.00989; T -0.0939; I -0.509; H 0.258; K -3.31; P -3.34; V -0.146

Source: the supplement of paper PMC12067230
